Drawing on PMC8590968, this text covers percent reduction of lectin bound to MDCK cells for 2 substances.

Assay [1] has as its target Sambucus nigra lectin (Sambucus nigra). The experiment in a line: immunostaining of cells or tissue.
The target of assay [2] is Maackia amurensis lectin II (Maackia amurensis). The experiment in a line: immunostaining of cells or tissue.

Sambucus nigra lectin (Sambucus nigra), sequence (Q41358 29-289 limits assumed, chain 1 of 2): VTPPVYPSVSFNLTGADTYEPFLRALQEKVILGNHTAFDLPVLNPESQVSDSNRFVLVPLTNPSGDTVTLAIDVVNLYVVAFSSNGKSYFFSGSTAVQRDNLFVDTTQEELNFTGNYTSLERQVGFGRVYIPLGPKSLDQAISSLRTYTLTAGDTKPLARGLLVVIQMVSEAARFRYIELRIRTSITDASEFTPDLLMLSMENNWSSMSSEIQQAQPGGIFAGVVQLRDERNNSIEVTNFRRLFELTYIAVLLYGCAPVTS
Sambucus nigra lectin (Sambucus nigra), sequence (Q41358 309-570 limits assumed, chain 2 of 2): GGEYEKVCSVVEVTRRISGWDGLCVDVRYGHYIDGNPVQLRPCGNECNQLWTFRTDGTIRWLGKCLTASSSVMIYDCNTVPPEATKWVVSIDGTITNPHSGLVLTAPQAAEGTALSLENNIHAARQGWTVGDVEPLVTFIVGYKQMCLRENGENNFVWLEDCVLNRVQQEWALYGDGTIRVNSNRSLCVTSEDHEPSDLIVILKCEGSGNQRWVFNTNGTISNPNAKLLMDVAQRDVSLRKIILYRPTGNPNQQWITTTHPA

“desialylated bovine lactoferrin (natural protein)”: the percent reduction of lectin bound to MDCK cells in assay [1] was determined as 60%.

“native bovine lactoferrin (natural protein)”: the percent reduction of lectin bound to MDCK cells in assay [2] came to 40%.
